Test [1] addresses T1, HLA-B*0702 (human).
T1 construct: also called HLA-B7
Description: HLA-B7 eluate MS; AML1; 3 means 6-25 copies/cell.

The target in test [2] is T2, HLA-A*0201 (human).
T2 construct: also called HLA-A2
Description: not described.

Test [3] addresses T2, HLA-A*0201. Description: HLA-A2 eluate MS; CLL4; 1 means <1 copy/cell.
In test [4] the target is T3, HLA B*0702 (human).
T3 construct: Class I MHC molecule of the cells from which the associated phosphopeptides were detected; also called HLA-B7
Description: MS of peptides eluted from HLA; L/M column: empty.

The target of test [5] is T2, HLA-A*0201. Description: HLA-A2 eluate MS; CLL2; 1 means <1 copy/cell.
Test [6] concerns the target T3, HLA B*0702. Description: MS of peptides eluted from HLA; L/M column: M.
The target in test [7] is T2, HLA-A*0201. Description: HLA-A2 binding affinity.
Test [8] deals with T2, HLA-A*0201. Description: competition binding assay on purified HLA-A*0201.
The target in test [9] is T2, HLA-A*0201. Description: competition with iodinated [..] for purified HLA-A*0201 plus β2M, capture on W6/32 plates.
The target in test [10] is T2, HLA-A*0201. Description: HLA-A2 binding affinity, method not described.
The target of test [11] is T2, HLA-A*0201. Description: MS of HLA-A*0201 (BB7.2) eluate; cultured melanocytes; +++ means 50-500 copies/cell.

Non-standard residues stand in square brackets, D forms with d. No end group written: not given here. pT = C[C@@H](OP(=O)(O)O)[C@H](N)C(=O)O; pS = N[C@@H](COP(=O)(O)O)C(=O)O

In the case of QPR[pS]PGPDYSL [GFI1 phosphopeptide QPRsPGPDYSL], the binding result in test [1] was “binds”.

As for RVA[pS]PTSGVK (also called RVAk) [IRS2 phosphopeptide RVAsPTSGVK], the binding result in test [2] was “no binding”.

Take KMD[pS]FLDMQL [N4BP2 phosphopeptide KMDsFLDMQL]: the binding result in test [3] is recorded as “binds”.

For RPV[pS]PFQEL [RPVsPFQEL], the binding result in test [4] is given as “binds”.

Turning to KAK[pS]PAPGL [NCOR2 phosphopeptide KAKsPAPGL], the binding result in test [5] is given as “binds”.

In the case of RVA[pS]PTSGVKR [IRS2 phosphopeptide RVApSPTSGVKR], in test [2], the binding result is reported as “no binding”.

Turning to RPA[pS]PAAKL [RPAsPAAKL], in test [6], the binding result was “binds”.

B1: pS33-βcat(V)30 (YLDsGIHSGV) (peptide)
peptide: YLD[pS]GIHSGV
notes: also called pS33-βcatenin30-39(V); modified phosphopeptide
The term IC50 denotes the point on the concentration scale where inhibition reaches its midpoint. Consider B1, for which the “fold enhancement of HLA-A2 binding affinity over pS33-βcatenin30-39” value in [7] is approximately 10 fold. For the same molecule, the “fold higher HLA-A*0201 binding affinity than pS33-βcat30” value in test [8] was 8 fold. The IC50 in test [9] was 0.041 µg/mL.

IMDR[pT]PEKL (also called natural BCAR3pT130) [BCAR3 phosphopeptide IMDRtPEKL]: the binding result in test [10] is on record as “binds”.

Take RQL[pS]SGVSEI (also called HSPB1) [Heat shock protein 27 (HSP27) phosphopeptide RQLpSSGVSEI]: in test [11], the binding result is given as “binds”.

Values taken from US20150224182A1 (UNIVERSITY OF VIRGINIA PATENT FOUNDATION, published 2015).
